Laboratory results taken from US20190142971A1, “FORMULATION AND DELIVERY OF MODIFIED NUCLEOSIDE, NUCLEOTIDE, AND NUCLEIC ACID COMPOSITIONS” (ModernaTX, Inc., priority 2013, published 2019).

Legend:
Type in all cases: in vivo
C57/BL6 mice = test: Example 34: EPO mRNA in buffer IM or SC in mice, serum EPO (Table 60); settings: dose 100 μg, 13 hours post injection
Protocol: Mice were intramuscularly or subcutaneously injected with 50 μl of the modified human EPO mRNA (h-EPO), modified luciferase mRNA (Luc) or the formulation buffer (F.Buffer) as described in the dosing chart Table 60. 13 hours post injection blood was collected and serum was analyzed to determine the amount human EPO for each mouse or rat.

mice [1] = test: Example 42B: EPO mRNA dose response IM in mice (Table 68); settings: Dose Vol. (μl/mouse) 100, 13 hours
Protocol: The mice were bled at 13 hours after the injection to determine the concentration of the human polypeptide in serum in pg/mL.

Sprague-Dawley rats = test: Example 34: EPO mRNA in buffer IM in rats, serum EPO (Table 59); settings: dose 100 μg, 13 hours post injection
[2] = tested on: non-human primates (cynomolgus monkey); test: Example 22: NHP cytokine interferon-alpha (Table 47)
Protocol: (§1) LNP formulations, shown in Table 33 (above), were administered to non-human primates (NHP) (cynomolgus monkey) (n=2) as intravenous injection (IV). The NHP were administered a single modified mRNA IV dose of 0.5 mg/kg, 0.05 mg/kg or 0.005 mg/kg of G-CSF or EPO in a dose volume of 0.5 mL/kg. The NHPs were bled before dosing with the modified mRNA LNP formulations to determine protein expression in the serum and a baseline complete blood count. After administration with the G-CSF modified mRNA formulation the NHP were bled at 8, 24, 48 and 72 hours to determined protein expression. After administration with the EPO modified mRNA formulation the NHP were bled at 8, 24, 48, 72 hours and 7 days to determined protein expression.

[3] = tested on: non-human primates (cynomolgus monkey); test: Example 22: LNP IV in non-human primates, serum G-CSF/EPO ELISA (Tables 38, 39)
Protocol: as §1
Samples collected from the NHPs after they were administered with G-CSF or EPO modified mRNA formulations were analyzed by ELISA to determine protein expression. Neutrophil and reticulocyte count was also determined pre-dose, 24 hours, 3 days, 7 days, 14 days and 18 days after administration of the modified G-CSF or EPO formulation.

mice [4] = test: Example 19A: LNP IV in mice, serum EPO/G-CSF ELISA (Table 36)
Protocol: Formulations, listed in Table 33, were characterized by particle size, zeta potential, and encapsulation.
LNP formulations, shown in Table 33 (above), were administered to mice (n=4) intravenously (IV) at a single modified mRNA dose 0.05 mg/kg or 0.005 mg/kg. There was also 3 control groups of mice (n=4) that were untreated. The mice were bled at 2 hours, 8 hours, 24 hours, 48 hours and 72 hours after they were administered with G-CSF or EPO modified mRNA formulations to determine the protein expression. Protein expression of G-CSF and EPO were determined using ELISA.

## Luciferase: luciferase mRNA, SEQ ID NO: 14, Cap1, fully modified with 5-methylcytosine and pseudouridine
C57/BL6 mice; mice IM
  Average Level in serum (human EPO): 0 pg/mL
C57/BL6 mice; mice SC
  Average Level in serum (human EPO): 26.7 pg/mL
Mice [1]
  Average Protein Product, serum: 0.0 pg/mL
Sprague-Dawley rats
  human EPO in serum, Avg.: 24.5 pg/mL
  human EPO in serum, Geometric-mean: 22.4 pg/mL

B1: G-CSF: modified mRNA encoding human G-CSF, SEQ ID NO: 4, Cap1, fully modified with 5-methylcytosine and pseudouridine; LNP-formulated in Examples 16-22 (nucleic acid)
chain: GGGAAAUAAGAGAGAAAAGAAGAGUAAGAAGAAAUAUAAGAGCCACCAUGGCCGGUCCCGCGACCCAAAGCCCCAUGAAACUUAUGGCCCUGCAGUUGCUGCUUUGGCACUCGGCCCUCUGGACAGUCCAAGAAGCGACUCCUCUCGGACCUGCCUCAUCGUUGCCGCAGUCAUUCCUUUUGAAGUGUCUGGAGCAGGUGCGAAAGAUUCAGGGCGAUGGAGCCGCACUCCAAGAGAAGCUCUGCGCGACAUACAAACUUUGCCAUCCCGAGGAGCUCGUACUGCUCGGGCACAGCUUGGGGAUUCCCUGGGCUCCUCUCUCGUCCUGUCCGUCGCAGGCUUUGCAGUUGGCAGGGUGCCUUUCCCAGCUCCACUCCGGUUUGUUCUUGUAUCAGGGACUGCUGCAAGCCCUUGAGGGAAUCUCGCCAGAAUUGGGCCCGACGCUGGACACGUUGCAGCUCGACGUGGCGGAUUUCGCAACAACCAUCUGGCAGCAGAUGGAGGAACUGGGGAUGGCACCCGCGCUGCAGCCCACGCAGGGGGCAAUGCCGGCCUUUGCGUCCGCGUUUCAGCGCAGGGCGGGUGGAGUCCUCGUAGCGAGCCACCUUCAAUCAUUUUUGGAAGUCUCGUACCGGGUGCUGAGACAUCUUGCGCAGCCGUGAAGCGCUGCCUUCUGCGGGGCUUGCCUUCUGGCCAUGCCCUUCUUCUCUCCCUUGCACCUGUACCUCUUGGUCUUUGAAUAAAGCCUGAGUAGGAAG
modifications: Cap1, 5-methylcytosine, pseudouridine
[2]; 0.005 mg/kg, 4 days, Female NHP
  IFN-alpha: 0 pg/mL
[2]; 0.005 mg/kg, 4 days, Male NHP
  IFN-alpha: 0 pg/mL
[2]; 0.005 mg/kg, Day 1 + 8 hr, Female NHP
  IFN-alpha: 0 pg/mL
[2]; 0.005 mg/kg, Day 1 + 8 hr, Male NHP
  IFN-alpha: 0 pg/mL
[2]; 0.005 mg/kg, Pre-dose, Female NHP
  IFN-alpha: 0 pg/mL
[2]; 0.005 mg/kg, Pre-dose, Male NHP
  IFN-alpha: 0 pg/mL
[2]; 0.05 mg/kg, 4 days, Female NHP
  IFN-alpha: 0 pg/mL
[2]; 0.05 mg/kg, 4 days, Male NHP
  IFN-alpha: 0 pg/mL
[2]; 0.05 mg/kg, Day 1 + 8 hr, Female NHP
  IFN-alpha: 0 pg/mL
[2]; 0.05 mg/kg, Day 1 + 8 hr, Male NHP
  IFN-alpha: 0 pg/mL
[2]; 0.05 mg/kg, Pre-dose, Female NHP
  IFN-alpha: 0 pg/mL
[2]; 0.05 mg/kg, Pre-dose, Male NHP
  IFN-alpha: 0 pg/mL
[2]; 0.5 mg/kg, 4 days, Female NHP
  IFN-alpha: 0 pg/mL
[2]; 0.5 mg/kg, 4 days, Male NHP
  IFN-alpha: 0 pg/mL
[2]; 0.5 mg/kg, Day 1 + 8 hr, Female NHP
  IFN-alpha: 529.2 pg/mL
[2]; 0.5 mg/kg, Day 1 + 8 hr, Male NHP
  IFN-alpha: 503.8 pg/mL
[2]; 0.5 mg/kg, Pre-dose, Female NHP
  IFN-alpha: 0 pg/mL
[2]; 0.5 mg/kg, Pre-dose, Male NHP
  IFN-alpha: 0 pg/mL
[3]; 0.005 mg/kg IV, 8 hours
  Female NHP Serum G-CSF / EPO Concentration: 559 pg/mL
  Male NHP Serum G-CSF / EPO Concentration: 700 pg/mL
[3]; 0.005 mg/kg IV, 24 hours
  Female NHP Serum G-CSF / EPO Concentration: 155 pg/mL
  Male NHP Serum G-CSF / EPO Concentration: <39 pg/mL
[3]; 0.005 mg/kg IV, 48 hours
  Female NHP Serum G-CSF / EPO Concentration: <39 pg/mL
  Male NHP Serum G-CSF / EPO Concentration: <39 pg/mL
[3]; 0.005 mg/kg IV, 72 hours
  Female NHP Serum G-CSF / EPO Concentration: <39 pg/mL
  Male NHP Serum G-CSF / EPO Concentration: <39 pg/mL
[3]; 0.005 mg/kg IV, Pre-bleed
  Female NHP Serum G-CSF / EPO Concentration: <39 pg/mL
  Male NHP Serum G-CSF / EPO Concentration: <39 pg/mL
[3]; 0.05 mg/kg IV, 8 hours
  Female NHP Serum G-CSF / EPO Concentration: 3,289 pg/ml
  Male NHP Serum G-CSF / EPO Concentration: 1,722 pg/ml
[3]; 0.05 mg/kg IV, 24 hours
  Female NHP Serum G-CSF / EPO Concentration: 722 pg/mL
  Male NHP Serum G-CSF / EPO Concentration: 307 pg/mL
[3]; 0.05 mg/kg IV, 48 hours
  Female NHP Serum G-CSF / EPO Concentration: <39 pg/mL
  Male NHP Serum G-CSF / EPO Concentration: <39 pg/mL
[3]; 0.05 mg/kg IV, 72 hours
  Female NHP Serum G-CSF / EPO Concentration: <39 pg/mL
  Male NHP Serum G-CSF / EPO Concentration: <39 pg/mL
[3]; 0.05 mg/kg IV, Pre-bleed
  Female NHP Serum G-CSF / EPO Concentration: <39 pg/mL
  Male NHP Serum G-CSF / EPO Concentration: <39 pg/mL
[3]; 0.5 mg/kg IV, 8 hours
  Female NHP Serum G-CSF / EPO Concentration: 43,525 pg/ml
  Male NHP Serum G-CSF / EPO Concentration: 43,594 pg/ml
[3]; 0.5 mg/kg IV, 24 hours
  Female NHP Serum G-CSF / EPO Concentration: 11,374 pg/ml
  Male NHP Serum G-CSF / EPO Concentration: 3,628 pg/ml
[3]; 0.5 mg/kg IV, 48 hours
  Female NHP Serum G-CSF / EPO Concentration: 1,100 pg/ml
  Male NHP Serum G-CSF / EPO Concentration: 833 pg/mL
[3]; 0.5 mg/kg IV, 72 hours
  Female NHP Serum G-CSF / EPO Concentration: <39 pg/mL
  Male NHP Serum G-CSF / EPO Concentration: 306 pg/mL
[3]; 0.5 mg/kg IV, Pre-bleed
  Female NHP Serum G-CSF / EPO Concentration: <39 pg/mL
  Male NHP Serum G-CSF / EPO Concentration: <39 pg/mL
[3]; NHP IV
  protein expression not detected beyond: ≤ 72 h
Mice [4]; 0.005 mg/kg, 2 hours
  EPO / G-CSF Serum Concentration: 3,447.8 pg/ml
Mice [4]; 0.005 mg/kg, 8 hours
  EPO / G-CSF Serum Concentration: 11,454.0 pg/ml
Mice [4]; 0.005 mg/kg, 24 hours
  EPO / G-CSF Serum Concentration: 4,960.2 pg/ml
Mice [4]; 0.005 mg/kg, 48 hours
  EPO / G-CSF Serum Concentration: 686.4 pg/mL
Mice [4]; 0.05 mg/kg, 2 hours
  EPO / G-CSF Serum Concentration: 20,951.4 pg/ml
Mice [4]; 0.05 mg/kg, 8 hours
  EPO / G-CSF Serum Concentration: 70,012.8 pg/ml
Mice [4]; 0.05 mg/kg, 24 hours
  EPO / G-CSF Serum Concentration: 19,356.2 pg/ml
Mice [4]; 0.05 mg/kg, 48 hours
  EPO / G-CSF Serum Concentration: 1,963.0 pg/ml
Mice [4]; 0.05 mg/kg, 72 hours
  EPO / G-CSF Serum Concentration: 47.3 pg/mL
